Experimental data published in patent US20200297818A1 (ZEALAND PHARMA A S, published 2020).
*1 amine or outer side, *2 acyl side, *3 side chain or, on linkers, in order; H or OH if unused. Where no end group is shown, it is not given here. Side-chain parts run from the residue outwards. [ ]: non-standard residue; d: D form. The star is where a group is joined. C20 diacid = O=C(O)CCCCCCCCCCCCCCCCCCC(=O)*; C18 diacid = O=C(O)CCCCCCCCCCCCCCCCC(=O)*; γGlu = O=C(O)[C@H](CCC(=O)[*:2])N[*:1]; AEEA = NCCOCCOCC(=O)O; Aib = CC(C)(N)C(=O)O

Assays:
[1] = target: T1, human GLP-2 receptor (hGLP2-R) (human, UniProt O95838 1-553); assay: cell-based or functional assay
T1 sequence (looked up): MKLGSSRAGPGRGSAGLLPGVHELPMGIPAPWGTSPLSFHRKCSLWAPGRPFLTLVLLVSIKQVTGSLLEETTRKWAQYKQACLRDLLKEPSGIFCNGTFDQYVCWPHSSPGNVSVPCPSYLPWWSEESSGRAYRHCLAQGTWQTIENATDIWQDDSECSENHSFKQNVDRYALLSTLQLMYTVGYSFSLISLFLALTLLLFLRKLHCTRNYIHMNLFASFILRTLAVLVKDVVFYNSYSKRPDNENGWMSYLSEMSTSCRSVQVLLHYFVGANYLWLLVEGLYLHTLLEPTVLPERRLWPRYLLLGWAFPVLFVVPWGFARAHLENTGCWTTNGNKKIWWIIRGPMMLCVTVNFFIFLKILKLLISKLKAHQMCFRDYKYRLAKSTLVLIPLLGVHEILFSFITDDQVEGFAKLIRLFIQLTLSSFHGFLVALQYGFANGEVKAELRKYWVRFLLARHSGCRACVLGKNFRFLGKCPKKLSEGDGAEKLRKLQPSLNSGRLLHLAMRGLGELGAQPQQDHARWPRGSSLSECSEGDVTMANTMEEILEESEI

[2] = target: human glucagon-like peptide 1 receptor (GLP-1 R) (human, UniProt P43220 24-463); assay: cell-based or functional assay

H-H[Aib]EGSFTSELATILDAK([AEEA-AEEA-Lys-Glu-Lys-γGlu-C20 diacid])AARDFIAWLIEHKITD-OH [Compound 63]
EC50 GLP-2 (nM); cAMP response [1]: 0.17 nM | EC50 GLP-1 (nM); cAMP response [2]: 0.31 nM

H[Aib]EGTFSSELATILDK([γGlu-C18 diacid])KAARDFIAWLIEHKITD-OH [Compound 4]
EC50 GLP-2 (nM); cAMP response [1]: 0.087 nM | EC50 GLP-1 (nM); cAMP response [2]: 0.66 nM

H-H[Aib]EGSFTSELATILDAKAAK([AEEA-Lys-Glu-Lys-γGlu-C20 diacid])DFIAWLIEHKITD-OH [Compound 68]
EC50 GLP-2 (nM); cAMP response [1]: 0.1 nM | EC50 GLP-1 (nM); cAMP response [2]: 0.084 nM

H-H[Aib]EGSFTSELATILDEQAAK([AEEA-AEEA-Lys-Glu-Lys-γGlu-C20 diacid])DFIAWLIEHKITD-OH [Compound 66]
EC50 GLP-2 (nM); cAMP response [1]: 0.18 nM | EC50 GLP-1 (nM); cAMP response [2]: 0.65 nM

H-H[Aib]EGTFTSELATILDEQAAK([AEEA-AEEA-Lys-Glu-Lys-γGlu-C20 diacid])DFIAWLIEHKITD-OH [Compound 67]
EC50 GLP-2 (nM); cAMP response [1]: 0.22 nM | EC50 GLP-1 (nM); cAMP response [2]: 0.16 nM

H[Aib]EGTFTSELATILDK([γGlu-C18 diacid])KAARDFIAWLIEHKITD-OH [Compound 6]
EC50 GLP-2 (nM); cAMP response [1]: 0.12 nM | EC50 GLP-1 (nM); cAMP response [2]: 0.058 nM

B1: Compound 5 (peptide)
peptide: HXEGSFTSELATILDXKAARDFIAWLIEHKITD
HELM: PEPTIDE1{H.[Aib].E.G.S.F.T.S.E.L.A.T.I.L.D.K.K.A.A.R.D.F.I.A.W.L.I.E.H.K.I.T.D}|PEPTIDE2{[O=C(O)CCCCCCCCCCCCCCCCC(=O)[*:2]].[gGlu]}$PEPTIDE1,PEPTIDE2,16:R3-2:R2$$$V2.0
SMILES: CC[C@H](C)[C@H](NC(=O)[C@H](Cc1ccccc1)NC(=O)[C@H](CC(=O)O)NC(=O)[C@H](CCCNC(=N)N)NC(=O)[C@H](C)NC(=O)[C@H](C)NC(=O)[C@H](CCCCN)NC(=O)[C@H](CCCCNC(=O)CC[C@H](NC(=O)CCCCCCCCCCCCCCCCC(=O)O)C(=O)O)NC(=O)[C@H](CC(=O)O)NC(=O)[C@H](CC(C)C)NC(=O)[C@@H](NC(=O)[C@@H](NC(=O)[C@H](C)NC(=O)[C@H](CC(C)C)NC(=O)[C@H](CCC(=O)O)NC(=O)[C@H](CO)NC(=O)[C@@H](NC(=O)[C@H](Cc1ccccc1)NC(=O)[C@H](CO)NC(=O)CNC(=O)[C@H](CCC(=O)O)NC(=O)C(C)(C)NC(=O)[C@@H](N)Cc1c[nH]cn1)[C@@H](C)O)[C@@H](C)O)[C@@H](C)CC)C(=O)N[C@@H](C)C(=O)N[C@@H](Cc1c[nH]c2ccccc12)C(=O)N[C@@H](CC(C)C)C(=O)N[C@H](C(=O)N[C@@H](CCC(=O)O)C(=O)N[C@@H](Cc1c[nH]cn1)C(=O)N[C@@H](CCCCN)C(=O)N[C@H](C(=O)N[C@H](C(=O)N[C@@H](CC(=O)O)C(=O)O)[C@@H](C)O)[C@@H](C)CC)[C@@H](C)CC
EC50 GLP-2 (nM); cAMP response [1]: 0.063 nM | EC50 GLP-1 (nM); cAMP response [2]: 0.17 nM

B2: Compound 9 (peptide)
peptide: HXEGTFTSELATILDGXAARDFIAWLIEHKITD
HELM: PEPTIDE1{H.[Aib].E.G.T.F.T.S.E.L.A.T.I.L.D.G.K.A.A.R.D.F.I.A.W.L.I.E.H.K.I.T.D}|PEPTIDE2{[O=C(O)CCCCCCCCCCCCCCCCC(=O)[*:2]].[gGlu]}$PEPTIDE1,PEPTIDE2,17:R3-2:R2$$$V2.0
SMILES: CC[C@H](C)[C@H](NC(=O)[C@H](Cc1ccccc1)NC(=O)[C@H](CC(=O)O)NC(=O)[C@H](CCCNC(=N)N)NC(=O)[C@H](C)NC(=O)[C@H](C)NC(=O)[C@H](CCCCNC(=O)CC[C@H](NC(=O)CCCCCCCCCCCCCCCCC(=O)O)C(=O)O)NC(=O)CNC(=O)[C@H](CC(=O)O)NC(=O)[C@H](CC(C)C)NC(=O)[C@@H](NC(=O)[C@@H](NC(=O)[C@H](C)NC(=O)[C@H](CC(C)C)NC(=O)[C@H](CCC(=O)O)NC(=O)[C@H](CO)NC(=O)[C@@H](NC(=O)[C@H](Cc1ccccc1)NC(=O)[C@@H](NC(=O)CNC(=O)[C@H](CCC(=O)O)NC(=O)C(C)(C)NC(=O)[C@@H](N)Cc1c[nH]cn1)[C@@H](C)O)[C@@H](C)O)[C@@H](C)O)[C@@H](C)CC)C(=O)N[C@@H](C)C(=O)N[C@@H](Cc1c[nH]c2ccccc12)C(=O)N[C@@H](CC(C)C)C(=O)N[C@H](C(=O)N[C@@H](CCC(=O)O)C(=O)N[C@@H](Cc1c[nH]cn1)C(=O)N[C@@H](CCCCN)C(=O)N[C@H](C(=O)N[C@H](C(=O)N[C@@H](CC(=O)O)C(=O)O)[C@@H](C)O)[C@@H](C)CC)[C@@H](C)CC
EC50 GLP-2 (nM); cAMP response [1]: 0.056 nM | EC50 GLP-1 (nM); cAMP response [2]: 0.056 nM

B3: Compound 7 (peptide)
peptide: HXEGTFSSELATILDGXAARDFIAWLIEHKITD
HELM: PEPTIDE1{H.[Aib].E.G.T.F.S.S.E.L.A.T.I.L.D.G.K.A.A.R.D.F.I.A.W.L.I.E.H.K.I.T.D}|PEPTIDE2{[O=C(O)CCCCCCCCCCCCCCCCC(=O)[*:2]].[gGlu]}$PEPTIDE1,PEPTIDE2,17:R3-2:R2$$$V2.0
SMILES: CC[C@H](C)[C@H](NC(=O)[C@H](Cc1ccccc1)NC(=O)[C@H](CC(=O)O)NC(=O)[C@H](CCCNC(=N)N)NC(=O)[C@H](C)NC(=O)[C@H](C)NC(=O)[C@H](CCCCNC(=O)CC[C@H](NC(=O)CCCCCCCCCCCCCCCCC(=O)O)C(=O)O)NC(=O)CNC(=O)[C@H](CC(=O)O)NC(=O)[C@H](CC(C)C)NC(=O)[C@@H](NC(=O)[C@@H](NC(=O)[C@H](C)NC(=O)[C@H](CC(C)C)NC(=O)[C@H](CCC(=O)O)NC(=O)[C@H](CO)NC(=O)[C@H](CO)NC(=O)[C@H](Cc1ccccc1)NC(=O)[C@@H](NC(=O)CNC(=O)[C@H](CCC(=O)O)NC(=O)C(C)(C)NC(=O)[C@@H](N)Cc1c[nH]cn1)[C@@H](C)O)[C@@H](C)O)[C@@H](C)CC)C(=O)N[C@@H](C)C(=O)N[C@@H](Cc1c[nH]c2ccccc12)C(=O)N[C@@H](CC(C)C)C(=O)N[C@H](C(=O)N[C@@H](CCC(=O)O)C(=O)N[C@@H](Cc1c[nH]cn1)C(=O)N[C@@H](CCCCN)C(=O)N[C@H](C(=O)N[C@H](C(=O)N[C@@H](CC(=O)O)C(=O)O)[C@@H](C)O)[C@@H](C)CC)[C@@H](C)CC
EC50 GLP-2 (nM); cAMP response [1]: 0.019 nM | EC50 GLP-1 (nM); cAMP response [2]: 0.92 nM

B4: Compound 8 (peptide)
peptide: HXEGSFTSELATILDGXAARDFIAWLIEHKITD
HELM: PEPTIDE1{H.[Aib].E.G.S.F.T.S.E.L.A.T.I.L.D.G.K.A.A.R.D.F.I.A.W.L.I.E.H.K.I.T.D}|PEPTIDE2{[O=C(O)CCCCCCCCCCCCCCCCC(=O)[*:2]].[gGlu]}$PEPTIDE1,PEPTIDE2,17:R3-2:R2$$$V2.0
SMILES: CC[C@H](C)[C@H](NC(=O)[C@H](Cc1ccccc1)NC(=O)[C@H](CC(=O)O)NC(=O)[C@H](CCCNC(=N)N)NC(=O)[C@H](C)NC(=O)[C@H](C)NC(=O)[C@H](CCCCNC(=O)CC[C@H](NC(=O)CCCCCCCCCCCCCCCCC(=O)O)C(=O)O)NC(=O)CNC(=O)[C@H](CC(=O)O)NC(=O)[C@H](CC(C)C)NC(=O)[C@@H](NC(=O)[C@@H](NC(=O)[C@H](C)NC(=O)[C@H](CC(C)C)NC(=O)[C@H](CCC(=O)O)NC(=O)[C@H](CO)NC(=O)[C@@H](NC(=O)[C@H](Cc1ccccc1)NC(=O)[C@H](CO)NC(=O)CNC(=O)[C@H](CCC(=O)O)NC(=O)C(C)(C)NC(=O)[C@@H](N)Cc1c[nH]cn1)[C@@H](C)O)[C@@H](C)O)[C@@H](C)CC)C(=O)N[C@@H](C)C(=O)N[C@@H](Cc1c[nH]c2ccccc12)C(=O)N[C@@H](CC(C)C)C(=O)N[C@H](C(=O)N[C@@H](CCC(=O)O)C(=O)N[C@@H](Cc1c[nH]cn1)C(=O)N[C@@H](CCCCN)C(=O)N[C@H](C(=O)N[C@H](C(=O)N[C@@H](CC(=O)O)C(=O)O)[C@@H](C)O)[C@@H](C)CC)[C@@H](C)CC
EC50 GLP-2 (nM); cAMP response [1]: 0.039 nM | EC50 GLP-1 (nM); cAMP response [2]: 0.22 nM

H-H[Aib]EGTFTSELATILDEQAAK([AEEA-Lys-Glu-Lys-γGlu-C20 diacid])DFIAWLIEHKITD-OH [Compound 65]
EC50 GLP-2 (nM); cAMP response [1]: 0.35 nM | EC50 GLP-1 (nM); cAMP response [2]: 0.13 nM

H-H[Aib]EGSFTSELATILDEQAAK([AEEA-Lys-Glu-Lys-γGlu-C20 diacid])DFIAWLIEHKITD-OH [Compound 64]
EC50 GLP-2 (nM); cAMP response [1]: 0.2 nM | EC50 GLP-1 (nM); cAMP response [2]: 0.49 nM
